Data taken from US20030236190A1 (published 2003).
No end group written: not given here.

B1: S374: 17-(Ald-GSLDESFYDWFERQLGKK)2 (peptide)
peptide: XGSLDESFYDWFERQLGKK
modifications: N-terminal Ald (aldehyde from periodate oxidation of a serine); the two chains joined N-N through chemical linker 17 of Table 3
notes: also called synthetic RP9 homodimer S374
B2: RP9 (peptide)
peptide: GSLDESFYDWFERQLGKK
modifications: also: biotin (b-RP9) or fluorescein (FITC-RP9) label where used, site not given here
notes: also called S371; b-RP9

Key:
[1] = target: T1, human insulin receptor (HIR), purified from transfected cells after solubilization with Triton X-100 (human, UniProt P06213 28-1382, limits assumed); experiment: 125I-insulin competition on HIR
T1 construct: also called WGA-purified recombinant human insulin receptor

[2] = target: T2, soluble human insulin receptor-immunoglobulin heavy chain chimera (sIR-Fc) (human, UniProt P06213 28-956, limits assumed, Eu3+ label (LANCE) in the TR-FRET assays); experiment: FP competition vs FITC-RP9, sIR-Fc
T2 construct: extracellular domain; construct of Bass et al., 1996; also called HIR-immunoglobulin heavy chain chimera; not shown: immunoglobulin heavy chain constant domains

[3] = target: T3, soluble HIR ectodomain (sIR) (human, UniProt P06213-2 28-944, limits assumed); experiment: FP competition vs FITC-RP9, sIR
T3 construct: extracellular domain
Excerpt: Fluorescence polarization assays (FP) were used for peptide competition studies.

[4] = target: T2, soluble human insulin …; experiment: TR-FRET competition vs b-RP9, sIR-Fc
Excerpt: Time-resolved fluorescence resonance energy transfer assays (TR-FRET) were used for peptide competition studies.
This was used to determine IC₅₀ values.

[5] = target: human insulin receptor (HIR) (human, UniProt P06213 28-1382, limits assumed); experiment: RRA, 125I-insulin competition, HIR
[6] = target: T2, soluble human insulin …; experiment: TR-FRET competition vs b-S175, sIR-Fc
Experimental: (§1) The TR-FRET assays were performed in a 384-well white microplate with a final volume of 30 μl.

[7] = target: T2, soluble human insulin …; experiment: TR-FRET competition vs b-S175, sIR-Fc (column as given)
Experimental: as §1

Binder	binding result [1]	IC50 [2] [nM]	IC50 [3] [nM]	IC50 [4] [nM]	IC50 [5] [nM]	IC50 [6] [nM]	IC50 [7] [nM]
B1	binds	–	–	–	–	–	–
FHENFYDWFVQRVSKK (also called D117) [H2C]	–	50	37	1630	700	410	–
B2	–	10	0.03	42	44	6	–
GGTVWPGYEWLRNA [E8 (D120)]	–	207	–	–	2200	–	755
